Reference: publication PMC9482650, “Quantitative fragmentomics allow affinity mapping of interactomes” (Nature Communications, 2022)
Each block holds one binder with its values, some of them ahead of it.

How the values were obtained:
Test in all cases: holdup assay
Design in all cases: key: below the threshold = too weak to quantify, mostly under pKd 3.1 to 4
APBA1_1, Q02410 = biological target: T1, APBA1_1, Q02410
T1 sequence (Q02410 651-752, limits assumed, looked up): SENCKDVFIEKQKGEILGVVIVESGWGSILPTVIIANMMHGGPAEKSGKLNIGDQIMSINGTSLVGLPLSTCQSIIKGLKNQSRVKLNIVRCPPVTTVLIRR

CASK, O14936 = biological target: CASK, O14936
Chain of CASK, O14936 (O14936 487-570): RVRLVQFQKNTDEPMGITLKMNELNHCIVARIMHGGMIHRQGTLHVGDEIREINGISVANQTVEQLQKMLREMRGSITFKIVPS

DLG3_1, Q92796 = biological target: T2, DLG3_1, Q92796
T2 sequence (Q92796 125-227, limits assumed, looked up): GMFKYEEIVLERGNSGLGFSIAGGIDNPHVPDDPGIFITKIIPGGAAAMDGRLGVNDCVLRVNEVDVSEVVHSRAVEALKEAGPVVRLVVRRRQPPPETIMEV

DLG3_2, Q92796 = biological target: T3, DLG3_2, Q92796
T3 sequence (Q92796 221-321, limits assumed, looked up): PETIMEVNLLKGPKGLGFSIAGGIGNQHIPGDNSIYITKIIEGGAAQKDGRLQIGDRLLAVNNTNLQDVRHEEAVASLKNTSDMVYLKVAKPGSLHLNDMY

DLG3_3, Q92796 = biological target: T4, DLG3_3, Q92796
T4 sequence (Q92796 374-475, limits assumed, looked up): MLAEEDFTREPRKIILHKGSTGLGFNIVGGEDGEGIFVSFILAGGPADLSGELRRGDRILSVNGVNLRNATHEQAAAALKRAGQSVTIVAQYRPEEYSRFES

DLG4_2, P78352 = biological target: DLG4_2, P78352
Chain of DLG4_2, P78352 (P78352 155-259): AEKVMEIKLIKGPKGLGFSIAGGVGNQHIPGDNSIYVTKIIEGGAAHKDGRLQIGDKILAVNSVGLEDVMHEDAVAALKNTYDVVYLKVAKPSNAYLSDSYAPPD

FRMPD2_3, Q68DX3 = biological target: FRMPD2_3, Q68DX3
Chain of FRMPD2_3, Q68DX3 (Q68DX3 1073-1166): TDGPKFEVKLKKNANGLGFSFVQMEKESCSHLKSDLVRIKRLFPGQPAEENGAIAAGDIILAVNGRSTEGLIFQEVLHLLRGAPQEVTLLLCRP

GIPC2, Q8TF65 = biological target: GIPC2, Q8TF65
Chain of GIPC2, Q8TF65 (Q8TF65 112-203): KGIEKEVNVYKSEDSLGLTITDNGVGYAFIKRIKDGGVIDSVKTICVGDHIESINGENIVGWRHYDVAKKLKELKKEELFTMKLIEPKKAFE

GRIP1_2, Q9Y3R0 = biological target: T5, GRIP1_2, Q9Y3R0
T5 sequence (Q9Y3R0 145-248, limits assumed, looked up): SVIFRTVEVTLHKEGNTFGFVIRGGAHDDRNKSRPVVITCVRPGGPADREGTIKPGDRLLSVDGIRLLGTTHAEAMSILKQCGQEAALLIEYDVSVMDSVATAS

Inadl_3, Q8NI35 = biological target: Inadl_3, Q8NI35
Chain of Inadl_3, Q8NI35 (Q8NI35 359-469): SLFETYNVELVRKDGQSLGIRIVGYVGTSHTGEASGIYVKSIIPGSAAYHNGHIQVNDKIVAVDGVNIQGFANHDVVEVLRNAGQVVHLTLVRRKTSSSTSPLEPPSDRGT

Inadl_8, Q8NI35 = biological target: Inadl_8, Q8NI35
Chain of Inadl_8, Q8NI35 (Q8NI35 1425-1530): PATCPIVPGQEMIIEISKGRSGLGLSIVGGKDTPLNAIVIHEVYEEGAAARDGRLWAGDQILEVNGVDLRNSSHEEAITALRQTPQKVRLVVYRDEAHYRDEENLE

Inadl_9, Q8NI35 = biological target: Inadl_9, Q8NI35
Chain of Inadl_9, Q8NI35 (Q8NI35 1530-1615): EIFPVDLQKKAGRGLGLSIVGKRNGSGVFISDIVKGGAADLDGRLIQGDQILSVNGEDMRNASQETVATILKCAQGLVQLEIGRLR

LIN7B, Q9HAP6 = biological target: T6, LIN7B, Q9HAP6
T6 sequence (Q9HAP6 88-185, limits assumed, looked up): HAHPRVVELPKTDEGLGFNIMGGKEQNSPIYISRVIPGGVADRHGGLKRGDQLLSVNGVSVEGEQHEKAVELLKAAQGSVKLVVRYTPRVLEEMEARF

LNX1_1, Q8TBB1 = biological target: LNX1_1, Q8TBB1
Chain of LNX1_1, Q8TBB1 (Q8TBB1 261-371): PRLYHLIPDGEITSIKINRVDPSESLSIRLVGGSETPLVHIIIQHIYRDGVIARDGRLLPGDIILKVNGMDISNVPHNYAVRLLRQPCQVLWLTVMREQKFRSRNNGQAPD

LNX1_2, Q8TBB1 = biological target: LNX1_2, Q8TBB1
Chain of LNX1_2, Q8TBB1 (Q8TBB1 371-470): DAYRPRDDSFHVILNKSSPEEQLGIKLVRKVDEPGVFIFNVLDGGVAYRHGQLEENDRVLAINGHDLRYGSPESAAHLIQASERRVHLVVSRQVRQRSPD

MAGI1_1, Q96QZ7 = biological target: MAGI1_1, Q96QZ7
Chain of MAGI1_1, Q96QZ7 (Q96QZ7 1-106): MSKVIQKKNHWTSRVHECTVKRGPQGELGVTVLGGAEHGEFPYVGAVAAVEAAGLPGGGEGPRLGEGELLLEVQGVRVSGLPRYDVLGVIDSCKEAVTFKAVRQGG

MAGI2_4, Q86UL8 = biological target: MAGI2_4, Q86UL8
Chain of MAGI2_4, Q86UL8 (Q86UL8 772-865): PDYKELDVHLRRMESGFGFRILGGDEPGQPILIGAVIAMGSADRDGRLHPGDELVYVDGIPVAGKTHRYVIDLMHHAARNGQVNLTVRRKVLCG

MAGI2_6, Q86UL8 = biological target: MAGI2_6, Q86UL8
Chain of MAGI2_6, Q86UL8 (Q86UL8 1141-1229): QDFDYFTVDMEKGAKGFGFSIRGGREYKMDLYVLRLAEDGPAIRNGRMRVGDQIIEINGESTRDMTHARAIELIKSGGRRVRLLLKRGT

MPP2, Q14168 = biological target: T7, MPP2, Q14168
T7 sequence (Q14168 180-250, limits assumed, looked up): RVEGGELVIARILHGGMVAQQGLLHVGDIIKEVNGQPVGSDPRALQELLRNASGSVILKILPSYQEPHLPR

NHERF3_3, Q5T2W1 = biological target: T8, NHERF3_3, Q5T2W1
T8 sequence (Q5T2W1 238-333, limits assumed, looked up): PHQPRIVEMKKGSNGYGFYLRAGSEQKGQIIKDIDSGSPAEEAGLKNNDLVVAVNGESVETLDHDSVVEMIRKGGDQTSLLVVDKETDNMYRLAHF

NHERF4_4, Q86UT5 = biological target: NHERF4_4, Q86UT5
Chain of NHERF4_4, Q86UT5 (Q86UT5 464-550): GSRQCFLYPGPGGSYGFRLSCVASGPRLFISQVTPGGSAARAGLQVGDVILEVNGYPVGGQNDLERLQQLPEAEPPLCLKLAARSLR

PTPN13_1, Q12923 = biological target: T9, PTPN13_1, Q12923
T9 sequence (Q12923 1088-1188, limits assumed, looked up): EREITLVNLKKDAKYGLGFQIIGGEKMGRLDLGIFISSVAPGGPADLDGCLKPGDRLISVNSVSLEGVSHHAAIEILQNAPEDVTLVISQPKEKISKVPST

SNTG1, Q9NSN8 = biological target: T10, SNTG1, Q9NSN8
T10 sequence (Q9NSN8 52-150, limits assumed, looked up): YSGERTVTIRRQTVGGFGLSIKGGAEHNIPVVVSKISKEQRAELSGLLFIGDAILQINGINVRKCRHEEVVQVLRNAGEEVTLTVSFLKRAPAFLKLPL

TJP1_3, Q07157 = biological target: TJP1_3, Q07157
Chain of TJP1_3, Q07157 (Q07157 416-512): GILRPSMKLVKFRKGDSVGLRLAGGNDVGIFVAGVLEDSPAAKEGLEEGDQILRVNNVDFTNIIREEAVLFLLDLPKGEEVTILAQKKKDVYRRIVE

TJP3_3, O95049 = biological target: T11, TJP3_3, O95049
T11 sequence (O95049 375-456, limits assumed, looked up): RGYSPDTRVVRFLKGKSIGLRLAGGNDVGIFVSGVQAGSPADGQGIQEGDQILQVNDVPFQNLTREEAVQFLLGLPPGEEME

TX1BP3, O14907 = biological target: T12, TX1BP3, O14907
T12 sequence (O14907 10-122, limits assumed, looked up): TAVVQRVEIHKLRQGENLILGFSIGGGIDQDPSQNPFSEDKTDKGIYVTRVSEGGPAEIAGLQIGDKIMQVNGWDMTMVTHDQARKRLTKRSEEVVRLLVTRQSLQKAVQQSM

[1] = plain residues with an end cap or a label only (N-terminal biotin on a linker: ado-ado)
[2] = plain residues with an end cap or a label only (N-terminal biotin on a linker: ahx)

pKd (APBA1_1, Q02410; [1]): below the threshold | pKd (CASK, O14936; [1]): below the threshold | pKd (DLG3_1, Q92796; [1]): below the threshold | pKd (DLG3_2, Q92796; [1]): 4.02 | pKd (DLG3_3, Q92796; [1]): below the threshold | pKd (DLG4_2, P78352; [1]): 4.15 | pKd (FRMPD2_3, Q68DX3; [1]): below the threshold | pKd (GIPC2, Q8TF65; [1]): 3.6 | pKd (GRIP1_2, Q9Y3R0; [1]): below the threshold | pKd (Inadl_3, Q8NI35; [1]): below the threshold | pKd (Inadl_8, Q8NI35; [1]): 4.01 | pKd (Inadl_9, Q8NI35; [1]): below the threshold | pKd (LIN7B, Q9HAP6; [1]): below the threshold | pKd (LNX1_1, Q8TBB1; [1]): 3.73 | pKd (LNX1_2, Q8TBB1; [1]): below the threshold | pKd (MAGI1_1, Q96QZ7; [1]): below the threshold | pKd (MAGI2_4, Q86UL8; [1]): 3.58 | pKd (MAGI2_6, Q86UL8; [1]): 3.69 | pKd (MPP2, Q14168; [1]): below the threshold | pKd (NHERF3_3, Q5T2W1; [1]): 3.7 | pKd (NHERF4_4, Q86UT5; [1]): 3.89 | pKd (PTPN13_1, Q12923; [1]): below the threshold | pKd (SNTG1, Q9NSN8; [1]): 3.76 | pKd (TJP1_3, Q07157; [1]): below the threshold | pKd (TJP3_3, O95049; [1]): below the threshold | pKd (TX1BP3, O14907; [1]): 3.76
Binder: TETASVCTKV [SLC23A1, Q9UHI7]

pKd (APBA1_1, Q02410; [1]): below the threshold | pKd (CASK, O14936; [1]): below the threshold | pKd (DLG3_1, Q92796; [1]): below the threshold | pKd (DLG3_2, Q92796; [1]): 4.38 | pKd (DLG3_3, Q92796; [1]): below the threshold | pKd (DLG4_2, P78352; [1]): 4 | pKd (FRMPD2_3, Q68DX3; [1]): below the threshold | pKd (GIPC2, Q8TF65; [1]): below the threshold | pKd (GRIP1_2, Q9Y3R0; [1]): below the threshold | pKd (Inadl_3, Q8NI35; [1]): below the threshold | pKd (Inadl_8, Q8NI35; [1]): below the threshold | pKd (Inadl_9, Q8NI35; [1]): below the threshold | pKd (LIN7B, Q9HAP6; [1]): 3.89 | pKd (LNX1_1, Q8TBB1; [1]): 3.8 | pKd (LNX1_2, Q8TBB1; [1]): below the threshold | pKd (MAGI1_1, Q96QZ7; [1]): 3.5 | pKd (MAGI2_4, Q86UL8; [1]): below the threshold | pKd (MAGI2_6, Q86UL8; [1]): 4.27 | pKd (MPP2, Q14168; [1]): below the threshold | pKd (NHERF3_3, Q5T2W1; [1]): below the threshold | pKd (NHERF4_4, Q86UT5; [1]): below the threshold | pKd (PTPN13_1, Q12923; [1]): below the threshold | pKd (SNTG1, Q9NSN8; [1]): 3.59 | pKd (TJP1_3, Q07157; [1]): below the threshold | pKd (TJP3_3, O95049; [1]): below the threshold | pKd (TX1BP3, O14907; [1]): below the threshold
Binder: EEPEERHTEL [CES2, O00748]

pKd (APBA1_1, Q02410; [2]): below the threshold | pKd (CASK, O14936; [2]): below the threshold | pKd (DLG3_1, Q92796; [2]): 4.34 | pKd (DLG3_2, Q92796; [2]): 4.8 | pKd (DLG3_3, Q92796; [2]): 3.87 | pKd (DLG4_2, P78352; [2]): 4.66 | pKd (FRMPD2_3, Q68DX3; [2]): 3.97 | pKd (GIPC2, Q8TF65; [2]): 3.81 | pKd (GRIP1_2, Q9Y3R0; [2]): below the threshold | pKd (Inadl_3, Q8NI35; [2]): 4.42 | pKd (Inadl_8, Q8NI35; [2]): 3.65 | pKd (Inadl_9, Q8NI35; [2]): 3.92 | pKd (LIN7B, Q9HAP6; [2]): below the threshold | pKd (LNX1_1, Q8TBB1; [2]): 4.17 | pKd (LNX1_2, Q8TBB1; [2]): 4.23 | pKd (MAGI1_1, Q96QZ7; [2]): below the threshold | pKd (MAGI2_4, Q86UL8; [2]): 4 | pKd (MAGI2_6, Q86UL8; [2]): 4.07 | pKd (MPP2, Q14168; [2]): below the threshold | pKd (NHERF3_3, Q5T2W1; [2]): below the threshold | pKd (NHERF4_4, Q86UT5; [2]): below the threshold | pKd (PTPN13_1, Q12923; [2]): below the threshold | pKd (SNTG1, Q9NSN8; [2]): 4.7 | pKd (TJP1_3, Q07157; [2]): below the threshold | pKd (TJP3_3, O95049; [2]): 3.62 | pKd (TX1BP3, O14907; [2]): 4.31
Binder: QGRWDHETIV [TMEM215, Q68D42]
